The text below walks through data of paper doi:10.1101/776245.

In the assay the target is SERP2475 (Nhi), full-length (Staphylococcus epidermidis RP62a). Put plainly: SEC. For orientation: Size exclusion chromatography separates by hydrodynamic size, large species first.

SERP2475 (Nhi), full-length (enzyme) yielded a stoichiometry N of 2.

One may read the stoichiometry N as the number of molecules, sites or subunits per partner or assembly.
